Laboratory results published in publication PMC4351142 (Structure (London, England : 1993), 2015).

T1: CHIP-TPR domain (HsCHIP 21-154) (human, UniProt Q9UNE7 21-154)
T1 sequence (looked up): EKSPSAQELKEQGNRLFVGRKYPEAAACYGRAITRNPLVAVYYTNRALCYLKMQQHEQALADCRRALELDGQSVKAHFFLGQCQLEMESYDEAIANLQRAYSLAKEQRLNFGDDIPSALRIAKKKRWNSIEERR

B1: HsHsc70_(541-646)Δ_(626-638) (domain or fragment, human, UniProt P11142 541-646, looked up)
chain: SLESYAFNMKATVEDEKLQGKINDEDKQKILDKCNEIINWLDKNQTAEKEEFEHQQKELEKVCNPIITKLYQSAGGMPGGMPGGFGPTIEEVD

What was measured:
[1] = molecular target: CHIP-TPR domain (HsCHIP 21-154) (human) (UniProt Q9UNE7); assay: NMR titration
[2] = molecular target: T1, CHIP-TPR domain (HsCHIP 21-154); assay: crystal structure

Molecule	Kd [1] [µM]	binding result [2]
Hsc70-lid-tail-ΔGPTIEEVD (domain or fragment)	> 100	–
B1	–	binds
